Assay [1] has as its target Spodoptera_frugiperda_ABC_transporter (Spodoptera frugiperda). Put plainly: cell-based or functional assay.
In assay [2] the target is SfABCc2 (Spodoptera frugiperda). Description: cell-based or functional assay.
Assay [3] deals with HzABCa7 (Helicoverpa zea). Put plainly: cell-based or functional assay.
For assay [4], the target named is SfABCa3 (Spodoptera frugiperda). Description: cell-based or functional assay.
The next assay addresses T1, Cry3Aa (Bacillus thuringiensis, UniProt P0A379 1-644).
T1 sequence: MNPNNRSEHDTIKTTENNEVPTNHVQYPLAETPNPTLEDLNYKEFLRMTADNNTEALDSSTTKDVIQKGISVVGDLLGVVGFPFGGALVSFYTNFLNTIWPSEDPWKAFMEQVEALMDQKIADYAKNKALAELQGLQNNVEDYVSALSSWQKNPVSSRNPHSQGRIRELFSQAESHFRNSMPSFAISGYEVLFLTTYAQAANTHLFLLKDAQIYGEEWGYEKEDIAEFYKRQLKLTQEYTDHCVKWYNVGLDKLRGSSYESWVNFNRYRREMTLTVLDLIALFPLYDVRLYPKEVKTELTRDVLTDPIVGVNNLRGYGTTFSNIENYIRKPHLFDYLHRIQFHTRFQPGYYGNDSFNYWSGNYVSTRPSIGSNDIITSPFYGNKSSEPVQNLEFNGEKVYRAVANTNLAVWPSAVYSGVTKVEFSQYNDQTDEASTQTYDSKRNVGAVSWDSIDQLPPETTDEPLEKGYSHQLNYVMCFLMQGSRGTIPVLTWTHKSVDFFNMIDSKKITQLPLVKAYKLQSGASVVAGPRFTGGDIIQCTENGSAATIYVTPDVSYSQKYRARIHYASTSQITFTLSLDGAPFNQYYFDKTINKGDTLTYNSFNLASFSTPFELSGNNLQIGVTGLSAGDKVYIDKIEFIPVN
Description: yeast two-hybrid.

Data on three molecules can be found in patent US20260217787A1 (MONSANTO TECHNOLOGY, published 2026).

“Cry1Ac as used in the Sf9 cytotoxicity assays (from UniProt P05068 29-623) (ligand)”: the values for the Sytox Green Fluresence, treatment (control buffer 645) in assay [1] and in assay [2] were 18600 and 20700, respectively.

Consider “Cry2Ab as used in the Sf9 cytotoxicity assays (ligand)”, for which the Sytox Green Fluresence, treatment (control buffer 5398) was found to be 55300 in assay [3] and 30600 in assay [4].

B1: Aminopeptidase Fragment 5 (receptor)
chain: GFPVVNAVFNGKNVTFSQKRFLYTGNNNTQWYIPVTYRLSNSSSYETFWLAPNSSVTILNNLTDKDWLIVNDDSRGYYRVKYCKRLTQRIQSLLNQNHTQISELNRAQILDDSLNLARAGYIKYSEAFELLEYLKNETSYFPWFTTIKNMDYLVTRLGANTELGKRTNAMILDLISQISANISTTKWEEIDQVTTLKLQRVWADACKRGQASCISETKRLFQALRLNKTSVNPNIRDVVYCNALRNSNNIAADWEFLWNRLLISIHPQEDLYILLSLGCTTHKPYLTRLLDATINSTSVIKLQNLYTVWNSVGSASKEGLDLAFEYFVNNYKKIIEYYPDGISLLSQLANRFTTNAEVTKLQQFADRLEKNSTIRAVANSALTTARQNLQFRARIEDDLNDYFKIDNSGSSV
notes: Yeast two-hybrid construct; also called Aminopeptidase N fragment 5
Take B1: the binding result with Cry3Aa is reported as “no binding”.
